A word on the Km: it is the concentration of substrate that gives half-maximal velocity.

Drawing on paper PMC2914791, “Trichomonas Transmembrane Cyclases Result from Massive Gene Duplication and Concomitant Development of Pseudogenes” (PLoS Neglected Tropical Diseases, 2010), this text covers Km for 2 proteins.

Substrate in this data set: Nc1ncnc2c1ncn2[C@@H]1O[C@H](COP(=O)(O)OP(=O)(O)OP(=O)(O)O)[C@@H](O)[C@H]1O
In words: cAMP direct immunoassay, colorimetric. Format: biochemical, Trichomonas vaginalis. The conditions noted are these: 4 µg GST-fusion protein; 0.2 mM GTP present in cAMP assay.

B1: group B cyclase (TVAG_013980), Trichomonas TMAC cyclase domain (Trichomonas vaginalis G3) (protein)
chain: TIFFVDIVKFSNYAAALSPSEIMSNLSLVFSTFDKIVVKYPTILKIKLIGDVYMAAAGIFSDPQMNPSKPAEESVNCCLDIQKVMEQINVKLSAGLEVRIGVNTGGPLIGGVLGTDKPTFDIIGDPINVASRLQ
B1: the Km came out at 710 ± 10 µM.

B2: group A cyclase (TVAG_456550), Trichomonas TMAC cyclase domain (Trichomonas vaginalis G3) (protein)
chain: TILFLDVVEFTPWCGSHDAQYVMRMLNIMFKEFDVITNAHKTMTKIKCIGDCYMAAGGIFDEVNQPPVHAKEVVDFGCKVIKKLLEIDEQENEKLRIRVGINTGGPIVAGVIGTEKPTFEILGPAINIAHEME
For the protein B2, the Km amounted to 520 ± 10 µM.
